Assay results taken from US20060286035A1 (CYTOS BIOTECHNOLOGY, published 2006).

What was measured:
T-cadherin [1] = target: T1, T-cadherin (mouse, UniProt Q9WTR5 139-693); test: flow cytometry titration on 293-EBNA cells transfected with pGF-T-cadherin; normalised geometric mean fluorescence of the GFP positive population
T1 construct: whole, on cells; also called adiponectin receptor; pGF-T-cadherin
T1 sequence (looked up): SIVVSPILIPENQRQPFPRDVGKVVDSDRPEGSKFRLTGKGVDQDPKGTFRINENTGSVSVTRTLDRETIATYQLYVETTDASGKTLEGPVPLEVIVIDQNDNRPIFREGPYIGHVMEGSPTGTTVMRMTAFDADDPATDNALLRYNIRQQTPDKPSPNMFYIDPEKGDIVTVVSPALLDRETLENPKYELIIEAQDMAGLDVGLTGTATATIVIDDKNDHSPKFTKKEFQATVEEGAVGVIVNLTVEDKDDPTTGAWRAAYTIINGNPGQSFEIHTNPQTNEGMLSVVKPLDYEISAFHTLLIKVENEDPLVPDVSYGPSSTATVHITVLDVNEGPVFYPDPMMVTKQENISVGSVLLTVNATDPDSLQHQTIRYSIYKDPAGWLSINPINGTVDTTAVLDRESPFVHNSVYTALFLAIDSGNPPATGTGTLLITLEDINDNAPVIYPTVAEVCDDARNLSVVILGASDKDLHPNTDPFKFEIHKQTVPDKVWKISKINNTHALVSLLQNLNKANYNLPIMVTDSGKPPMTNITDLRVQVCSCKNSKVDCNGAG
Protocol: (§1) 293-EBNA cells were transfected with pGF-T-cadherin. After two days the cells were harvested and stained with decreasing amounts of Acrp30-FLAG-C (50, 25, 12.5, 6.3, 3.1, 1.6, 0.8, 0.4 and 0 μg/ml) as described in example 6. To evaluate the dissociation constant, the geometric mean fluorescence (GMFl) of the GFP positive population was determined using FACS Winmdi software. The GMFl was then normalized as follows: (GMFL of the sample minus GMFl of samples stained with secondary reagents only) divided by maximal GMFL. The protein concentration is shown on the X axis and the normalised GMFL is shown on the Y axis.
(§2) In order to determine the dissociation constant of the adiponectin-T-cadherin interaction, 293-EBNA cells were transfected with pGF-T-cadherin as described in example 6. […] The cells were then analysed by FACS using a FACS Calibur (Becton Dickinson). To determine the binding affinity, the geometric mean fluorescence of the GFP positive population was determined using FACS WINmdi software. The geometric mean fluorescence was then normalised by deducing the mean fluorescence of the sample which was stained with the secondary reagents only from the different samples and then all the values were divided by the maximal fluorescence. The normalised values for the mean fluorescence were than plotted against the concentration of Acrp30-FLAG-C. […]

T-cadherin [2] = target: T1, T-cadherin; test: flow cytometry titration on 293-EBNA cells transfected with pGF-T-cadherin; half-maximal concentration divided by the molecular weight
Protocol: as §1, §2

B1: Acrp30-FLAG-C (ligand)
chain: DADPEDDVTTTEELAPALVPPPKGTCAGWMAGIPGHPGHNGTPGRDGRDGTPGEKGEKGDAGLLGPKGETGDVGVTGAEGPRGFPGTPGRKGEPGEAAYMYRSAFSVGLETRVTVPNVPIRFTKIFYNQQNHYDGSTGKFYCNIPGLYYFSYHITVYMKDVKVSLFKKDKAVLFTYDQYQEKNVDQASGSVLLHLEVGDQVWLQVYGDGDHNGLYADNVNDSTFTGFLLYHDTNSLDDYKDDDDK
notes: The molecular weight used for the Kd is 26546 g/mol (monomer); Three bands on SDS-PAGE from differential glycosylation; also called Adiponectin-bait Acrp30-FLAG-C; adiponectin
EC50 (T-cadherin [1]): 2.2 µg/mL
Kd (T-cadherin [2]): 83 nM
